Source: IntAct's records for PubMed 29039417

B1: BBSome complex member BBS4 (Homo sapiens), Q96RK4 (parent)
chain: MAEERVATRTQFPVSTESQKPRQKKAPEFPILEKQNWLIHLHYIRKDYEACKAVIKEQLQETQGLCEYAIYVQALIFRLEGNIQESLELFQTCAVLSPQSADNLKQVARSLFLLGKHKAAIEVYNEAAKLNQKDWEISHNLGVCYIYLKQFNKAQDQLHNALNLNRHDLTYIMLGKIHLLEGDLDKAIEVYKKAVEFSPENTELLTTLGLLYLQLGIYQKAFEHLGNALTYDPTNYKAILAAGSMMQTHGDFDVALTKYRVVACAVPESPPLWNNIGMCFFGKKKYVAAISCLKRANYLAPFDWKILYNLGLVHLTMQQYASAFHFLSAAINFQPKMGELYMLLAVALTNLEDIENAKRAYAEAVHLDKCNPLVNLNYAVLLYNQGEKKNALAQYQEMEKKVSLLKDNSSLEFDSEMVEMAQKLGAALQVGEALVWTKPVKDPKSKHQTTSTSKPASFQQPLGSNQALGQAMSSAAAYRTLPSGAGGTSQFTKPPSLPLEPEPAVESSPTETSEQIREK
partner: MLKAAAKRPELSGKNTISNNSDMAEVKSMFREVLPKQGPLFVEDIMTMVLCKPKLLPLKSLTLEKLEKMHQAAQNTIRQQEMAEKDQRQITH

Variants of: B1
Details: with bbip1_human BBIP1, A8MTZ0

Question: How did the “effect of a mutation on the interaction” value turn out when A345K was run?
Answer: with no effect

Question: For A345T, which “effect of a mutation on the interaction” value is on record?
Answer: disrupting interaction strength

Question: How did the “effect of a mutation on the interaction” value turn out when A345V was run?
Answer: disrupting interaction strength

Question: How did the “effect of a mutation on the interaction” value turn out when V346A was run?
Answer: disrupting interaction strength

Question: V346E was tested. Which “effect of a mutation on the interaction” value did it give?
Answer: disrupting interaction strength

Question: For V346K, which “effect of a mutation on the interaction” value is on record?
Answer: with no effect

Question: A347D was tested. Which “effect of a mutation on the interaction” value did it give?
Answer: disrupting interaction strength

Question: Which “effect of a mutation on the interaction” value does the source give for A347E here?
Answer: with no effect

Question: With A347K as the variant, how does the “effect of a mutation on the interaction” value read?
Answer: with no effect

Question: How did the “effect of a mutation on the interaction” value turn out when L348A was run?
Answer: with no effect

Question: How did the “effect of a mutation on the interaction” value turn out when L348E was run?
Answer: with no effect

Question: For L348K, which “effect of a mutation on the interaction” value is on record?
Answer: with no effect

Question: For L348P, which “effect of a mutation on the interaction” value is on record?
Answer: disrupting interaction strength

Question: For L348R, which “effect of a mutation on the interaction” value is on record?
Answer: disrupting interaction strength

Question: How did the “effect of a mutation on the interaction” value turn out when L348T was run?
Answer: disrupting interaction strength

Question: With T349A as the variant, how does the “effect of a mutation on the interaction” value read?
Answer: with no effect

Question: With T349E as the variant, how does the “effect of a mutation on the interaction” value read?
Answer: with no effect

Question: How did the “effect of a mutation on the interaction” value turn out when T349K was run?
Answer: with no effect

Question: Which “effect of a mutation on the interaction” value does the source give for N350A here?
Answer: with no effect

Question: N350D was tested. Which “effect of a mutation on the interaction” value did it give?
Answer: disrupting interaction strength

Question: N350E was tested. Which “effect of a mutation on the interaction” value did it give?
Answer: with no effect

Question: How did the “effect of a mutation on the interaction” value turn out when N350K was run?
Answer: with no effect

Question: With L351A as the variant, how does the “effect of a mutation on the interaction” value read?
Answer: with no effect

Question: L351E was tested. Which “effect of a mutation on the interaction” value did it give?
Answer: with no effect

Question: L351K was tested. Which “effect of a mutation on the interaction” value did it give?
Answer: with no effect

Question: L351P was tested. Which “effect of a mutation on the interaction” value did it give?
Answer: disrupting interaction strength

Question: For E352A, which “effect of a mutation on the interaction” value is on record?
Answer: with no effect

Question: How did the “effect of a mutation on the interaction” value turn out when E352K was run?
Answer: with no effect

Question: With D353A as the variant, how does the “effect of a mutation on the interaction” value read?
Answer: with no effect

Question: How did the “effect of a mutation on the interaction” value turn out when D353E was run?
Answer: with no effect

Question: How did the “effect of a mutation on the interaction” value turn out when D353G was run?
Answer: disrupting interaction strength

Question: How did the “effect of a mutation on the interaction” value turn out when D353K was run?
Answer: with no effect

Question: How did the “effect of a mutation on the interaction” value turn out when E355A was run?
Answer: with no effect

Question: With E355K as the variant, how does the “effect of a mutation on the interaction” value read?
Answer: with no effect

Question: With N356A as the variant, how does the “effect of a mutation on the interaction” value read?
Answer: with no effect

Question: For N356E, which “effect of a mutation on the interaction” value is on record?
Answer: with no effect

Question: For N356K, which “effect of a mutation on the interaction” value is on record?
Answer: with no effect

Question: For A357E, which “effect of a mutation on the interaction” value is on record?
Answer: with no effect

Question: For A357K, which “effect of a mutation on the interaction” value is on record?
Answer: with no effect

Question: Which “effect of a mutation on the interaction” value does the source give for A357V here?
Answer: disrupting interaction strength

Question: For K358A, which “effect of a mutation on the interaction” value is on record?
Answer: with no effect

Question: How did the “effect of a mutation on the interaction” value turn out when K358E was run?
Answer: with no effect

Question: How did the “effect of a mutation on the interaction” value turn out when R359A was run?
Answer: with no effect

Question: Which “effect of a mutation on the interaction” value does the source give for R359E here?
Answer: with no effect

Question: For R359K, which “effect of a mutation on the interaction” value is on record?
Answer: with no effect

Question: Which “effect of a mutation on the interaction” value does the source give for A360E here?
Answer: with no effect

Question: How did the “effect of a mutation on the interaction” value turn out when A360K was run?
Answer: with no effect

Question: For Y361A, which “effect of a mutation on the interaction” value is on record?
Answer: with no effect

Question: With Y361C as the variant, how does the “effect of a mutation on the interaction” value read?
Answer: disrupting interaction strength

Question: Which “effect of a mutation on the interaction” value does the source give for Y361E here?
Answer: with no effect

Question: Y361K was tested. Which “effect of a mutation on the interaction” value did it give?
Answer: with no effect

Question: How did the “effect of a mutation on the interaction” value turn out when A362E was run?
Answer: with no effect

Question: How did the “effect of a mutation on the interaction” value turn out when A362K was run?
Answer: with no effect

Question: How did the “effect of a mutation on the interaction” value turn out when E363A was run?
Answer: with no effect

Question: How did the “effect of a mutation on the interaction” value turn out when E363G was run?
Answer: disrupting interaction strength

Question: With E363K as the variant, how does the “effect of a mutation on the interaction” value read?
Answer: with no effect

Question: With A364E as the variant, how does the “effect of a mutation on the interaction” value read?
Answer: with no effect

Question: Which “effect of a mutation on the interaction” value does the source give for A364K here?
Answer: with no effect

Question: For A364T, which “effect of a mutation on the interaction” value is on record?
Answer: disrupting interaction strength

Question: How did the “effect of a mutation on the interaction” value turn out when A364V was run?
Answer: disrupting interaction strength

Question: Which “effect of a mutation on the interaction” value does the source give for V365A here?
Answer: with no effect

Question: V365E was tested. Which “effect of a mutation on the interaction” value did it give?
Answer: with no effect

Question: Which “effect of a mutation on the interaction” value does the source give for V365K here?
Answer: with no effect

Question: H366A was tested. Which “effect of a mutation on the interaction” value did it give?
Answer: with no effect

Question: With H366E as the variant, how does the “effect of a mutation on the interaction” value read?
Answer: with no effect

Question: How did the “effect of a mutation on the interaction” value turn out when H366K was run?
Answer: with no effect

Question: Which “effect of a mutation on the interaction” value does the source give for L367A here?
Answer: with no effect

Question: Which “effect of a mutation on the interaction” value does the source give for L367E here?
Answer: with no effect

Question: How did the “effect of a mutation on the interaction” value turn out when L367K was run?
Answer: with no effect

Question: With L367P as the variant, how does the “effect of a mutation on the interaction” value read?
Answer: disrupting interaction strength

Question: With D368A as the variant, how does the “effect of a mutation on the interaction” value read?
Answer: with no effect

Question: For D368E, which “effect of a mutation on the interaction” value is on record?
Answer: with no effect

Question: Which “effect of a mutation on the interaction” value does the source give for D368G here?
Answer: disrupting interaction strength

Question: For D368K, which “effect of a mutation on the interaction” value is on record?
Answer: with no effect

Question: With K369A as the variant, how does the “effect of a mutation on the interaction” value read?
Answer: with no effect

Question: For K369E, which “effect of a mutation on the interaction” value is on record?
Answer: with no effect

Question: For C370A, which “effect of a mutation on the interaction” value is on record?
Answer: with no effect

Question: With C370E as the variant, how does the “effect of a mutation on the interaction” value read?
Answer: with no effect

Question: Which “effect of a mutation on the interaction” value does the source give for C370K here?
Answer: with no effect

Question: For N371A, which “effect of a mutation on the interaction” value is on record?
Answer: with no effect

Question: Which “effect of a mutation on the interaction” value does the source give for N371E here?
Answer: with no effect

Question: How did the “effect of a mutation on the interaction” value turn out when N371K was run?
Answer: with no effect

Question: Which “effect of a mutation on the interaction” value does the source give for P372A here?
Answer: with no effect

Question: How did the “effect of a mutation on the interaction” value turn out when P372E was run?
Answer: with no effect

Question: For P372K, which “effect of a mutation on the interaction” value is on record?
Answer: with no effect
